Test results published in US20160122768.

T1: phospho-SRC Y527 peptide [H-TSTEPQ-pY-QPGENL-OH]
T1 chain: TSTEPQYQPGENL


What was measured:
[1] = molecular target: T1, phospho-SRC Y527 peptide …
[2] = molecular target: SRC (endogenous, from RA FLS lysates), P12931

Protein	in vitro dephosphorylation of the SRC phospho-Y527 peptide (PTP assay, Biomol Green, absorbance at 620 nm) [1]	basal phosphorylation of SRC Y527 in RA FLS after PTPRK knockdown (Western blotting) [2]
C-terminally HA-tagged wild type (WT) RPTPκ (NM 008983.2), full-length, immunoprecipitated from COS-1 cells (protein) ALGQFSAGGCTFDDGPGACDYHQDLYDDFEWVHVSAQEPHYLPPEMPQGSYMVVDSSNHDPGEKARLQLPTMKENDTHCIDFSYLLYSQKGLNPGTLNILVRVNKGPLANPIWNVTGFTGRDWLRAELAVSTFWPNEYQVIFEAEVSGGRSGYIAIDDIQVLSYPCDKSPHFLRLGDVEVNAGQNATFQCIATGRDAVHNKLWLQRRNGEDIPVAQTKNINHRRFAASFRLQEVTKTDQDLYRCVTQSERGSGVSNFAQLIVREPPRPIAPPQLLGVGPTYLLIQLNANSIIGDGPIILKEVEYRMTSGSWTETHAVNAPTYKLWHLDPDTEYEIRVLLTRPGEGGTGLPGPPLITRTKCAEPMRTPKTLKIAEIQARRIAVDWESLGYNITRCHTFNVTICYHYFRGHNESRADCLDMDPKAPQHVVNHLPPYTNVSLKMILTNPEGRKESEETIIQTDEDVPGPVPVKSLQGTSFENKIFLNWKEPLEPNGIITQYEVSYSSIRSFDPAVPVAGPPQTVSNLWNSTHHVFMHLHPGTTYQFFIRASTVKGFGPATAINVTTNISAPSLPDYEGVDASLNETATTITVLLRPAQAKGAPISAYQIVVEQLHPHRTKREAGAMECYQVPVTYQNALSGGAPYYFAAELPPGNLPEPAPFTVGDNRTYKGFWNPPLAPRKGYNIYFQAMSSVEKETKTQCVRIATKAAATEEPEVIPDPAKQTDRVVKIAGISAGILVFILLLLVVIVIVKKSKLAKKRKDAMGNTRQEMTHMVNAMDRSYADQSTLHAEDPLSLTFMDQHNFSPRLPNDPLVPTAVLDENHSATAESSRLLDVPRYLCEGTESPYQTGQLHPAIRVADLLQHINLMKTSDSYGFKEEYESFFEGQSASWDVAKKDQNRAKNRYGNIIAYDHSRVILQPVEDDPSSDYINANYIDIWLYRDGYQRPSHYIATQGPVHETVYDFWRMVWQEQSACIVMVTNLVEVGRVKCYKYWPDDTEVYGDFKVTCVEMEPLAEYVVRTFTLERRGYNEIREVKQFHFTGWPDHGVPYHATGLLSFIRRVKLSNPPSAGPIVVHCSAGAGRTGCYIVIDIMLDMAEREGVVDIYNCVKALRSRRINMVQTEEQYIFIHDAILEACLCGETAIPVCEFKAAYFDMIRIDSQTNSSHLKDEFQTLNSVTPRLQAEDCSIACLPRNHDKNRFMDMLPPDRCLPFLITIDGESSNYINAALMDSYRQPAAFIVTQYPLPNTVKDFWRLVYDYGCTSIVMLNEVDLSQGCPQYWPEEGMLRYGPIQVECMSCSMDCDVINRIFRICNLTRPQEGYLMVQQFQYLGWASHREVPGSKRSFLKLILQVEKWQEECEEGEGRTIIHCLNGGGRSGMFCAIGIVVEMVKRQNVVDVFHAVKTLRNSKPNMVEAPEQYRFCYDVALEYLESS	full-length RPTPk immunoprecipitated from COS-1 cells in vitro dephosphorylated a SRC phospho-Y527 peptide	–
RPTPκ (endogenous, in human RA FLS and RA synovial tissue) (protein) AQGQFSAGGCTFDDGPGACDYHQDLYDDFEWVHVSAQEPHYLPPEMPQGSYMIVDSSDHDPGEKARLQLPTMKENDTHCIDFSYLLYSQKGLNPGTLNILVRVNKGPLANPIWNVTGFTGRDWLRAELAVSTFWPNEYQVIFEAEVSGGRSGYIAIDDIQVLSYPCDKSPHFLRLGDVEVNAGQNATFQCIATGRDAVHNKLWLQRRNGEDIPVAQTKNINHRRFAASFRLQEVTKTDQDLYRCVTQSERGSGVSNFAQLIVREPPRPIAPPQLLGVGPTYLLIQLNANSIIGDGPIILKEVEYRMTSGSWTETHAVNAPTYKLWHLDPDTEYEIRVLLTRPGEGGTGLPGPPLITRTKCAEPMRTPKTLKIAEIQARRIAVDWESLGYNITRCHTFNVTICYHYFRGHNESKADCLDMDPKAPQHVVNHLPPYTNVSLKMILTNPEGRKESEETIIQTDEDVPGPVPVKSLQGTSFENKIFLNWKEPLDPNGIITQYEISYSSIRSFDPAVPVAGPPQTVSNLWNSTHHVFMHLHPGTTYQFFIRASTVKGFGPATAINVTTNISAPTLPDYEGVDASLNETATTITVLLRPAQAKGAPISAYQIVVEELHPHRTKREAGAMECYQVPVTYQNAMSGGAPYYFAAELPPGNLPEPAPFTVGDNRTYQGFWNPPLAPRKGYNIYFQAMSSVEKETKTQCVRIATKAATEEPEVIPDPAKQTDRVVKIAGISAGILVFILLLLVVILIVKKSKLAKKRKDAMGNTRQEMTHMVNAMDRSYADQSTLHAEDPLSITFMDQHNFSPRYENHSATAESSRLLDVPRYLCEGTESPYQTGQLHPAIRVADLLQHINLMKTSDSYGFKEEYESFFEGQSASWDVAKKDQNRAKNRYGNIIAYDHSRVILQPVEDDPSSDYINANYIDGYQRPSHYIATQGPVHETVYDFWRMIWQEQSACIVMVTNLVEVGRVKCYKYWPDDTEVYGDFKVTCVEMEPLAEYVVRTFTLERRGYNEIREVKQFHFTGWPDHGVPYHATGLLSFIRRVKLSNPPSAGPIVVHCSAGAGRTGCYIVIDIMLDMAEREGVVDIYNCVKALRSRRINMVQTEEQYIFIHDAILEACLCGETAIPVCEFKAAYFDMIRIDSQTNSSHLKDEFQTLNSVTPRLQAEDCSIACLPRNHDKNRFMDMLPPDRCLPFLITIDGESSNYINAALMDSYRQPAAFIVTQYPLPNTVKDFWRLVYDYGCTSIVMLNEVDLSQGCPQYWPEEGMLRYGPIQVECMSCSMDCDVINRIFRICNLTRPQEGYLMVQQFQYLGWASHREVPGSKRSFLKLILQVEKWQEECEEGEGRTIIHCLNGGGRSGMFCAIGIVVEMVKRQNVVDVFHAVKTLRNSKPNMVEAPEQYRFCYDVALEYLESS	–	RA FLS treated with PTPRK ASO showed increased basal phosphorylation of SRC Y527
